Reference: patent US20160297892A1 (Novo Nordisk, published 2016)

T1: Gla-domain deleted recombinant human Protein S (human, UniProt P07225 114-676)
T1 construct: also called hPS-dGla; desGla human Protein S
T1 sequence: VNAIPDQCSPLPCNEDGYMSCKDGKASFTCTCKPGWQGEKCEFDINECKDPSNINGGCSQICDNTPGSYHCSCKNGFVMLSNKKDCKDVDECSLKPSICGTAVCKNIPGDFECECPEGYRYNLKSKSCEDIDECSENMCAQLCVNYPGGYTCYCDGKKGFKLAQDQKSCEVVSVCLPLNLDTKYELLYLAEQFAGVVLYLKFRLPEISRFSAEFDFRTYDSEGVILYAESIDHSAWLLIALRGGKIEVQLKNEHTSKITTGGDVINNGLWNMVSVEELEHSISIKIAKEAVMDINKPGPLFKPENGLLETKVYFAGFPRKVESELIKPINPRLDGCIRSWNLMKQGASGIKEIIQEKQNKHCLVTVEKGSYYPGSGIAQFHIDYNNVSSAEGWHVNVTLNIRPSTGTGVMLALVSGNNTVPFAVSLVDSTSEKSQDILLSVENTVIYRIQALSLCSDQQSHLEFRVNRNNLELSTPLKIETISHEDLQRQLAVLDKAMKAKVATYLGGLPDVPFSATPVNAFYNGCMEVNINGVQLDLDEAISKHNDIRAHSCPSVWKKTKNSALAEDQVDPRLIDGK

T2: EGF1-4 domains of human Protein S with C-terminal HPC4 tag (human, UniProt P07225 114-286, partial hydroxylation of Asn or Asp in the EGF domains (detected by MS))
T2 construct: also called hEGF1-4; human Protein S EGF1-4
T2 sequence: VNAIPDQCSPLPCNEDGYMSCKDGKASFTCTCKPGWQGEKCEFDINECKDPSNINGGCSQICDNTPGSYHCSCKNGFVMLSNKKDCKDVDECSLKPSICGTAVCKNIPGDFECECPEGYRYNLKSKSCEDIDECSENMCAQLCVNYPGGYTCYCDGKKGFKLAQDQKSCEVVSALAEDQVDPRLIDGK

T3: EGF domain 1 and 2 of recombinant human Protein S (human, UniProt P07225 114-200, limits assumed)
T3 construct: domain: EGF domain 1 and 2; also called hEGF1-2
T3 sequence (looked up): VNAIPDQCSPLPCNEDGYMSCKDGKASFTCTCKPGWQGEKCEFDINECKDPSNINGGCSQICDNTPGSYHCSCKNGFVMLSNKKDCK

T4: C4b-Binding Protein (UniProt P04003 49-597; P20851 18-252)
T4 construct: Bought protein; also called C4BP; C4b-BP
T4 sequence (looked up) 1: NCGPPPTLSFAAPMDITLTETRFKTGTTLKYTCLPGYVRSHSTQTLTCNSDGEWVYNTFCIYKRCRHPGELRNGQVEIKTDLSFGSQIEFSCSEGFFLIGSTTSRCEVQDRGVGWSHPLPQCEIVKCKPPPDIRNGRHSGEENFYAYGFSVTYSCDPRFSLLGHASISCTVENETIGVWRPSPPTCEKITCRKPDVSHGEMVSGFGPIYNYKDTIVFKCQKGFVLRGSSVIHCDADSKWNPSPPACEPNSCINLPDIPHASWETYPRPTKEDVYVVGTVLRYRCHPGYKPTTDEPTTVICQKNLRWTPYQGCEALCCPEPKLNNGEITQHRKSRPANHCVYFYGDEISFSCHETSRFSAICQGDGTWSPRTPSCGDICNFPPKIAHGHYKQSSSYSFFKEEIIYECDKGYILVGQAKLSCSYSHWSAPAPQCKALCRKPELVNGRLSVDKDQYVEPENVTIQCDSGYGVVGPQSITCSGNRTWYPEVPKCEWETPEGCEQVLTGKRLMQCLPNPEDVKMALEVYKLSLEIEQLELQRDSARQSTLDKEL
T4 sequence (looked up) 2: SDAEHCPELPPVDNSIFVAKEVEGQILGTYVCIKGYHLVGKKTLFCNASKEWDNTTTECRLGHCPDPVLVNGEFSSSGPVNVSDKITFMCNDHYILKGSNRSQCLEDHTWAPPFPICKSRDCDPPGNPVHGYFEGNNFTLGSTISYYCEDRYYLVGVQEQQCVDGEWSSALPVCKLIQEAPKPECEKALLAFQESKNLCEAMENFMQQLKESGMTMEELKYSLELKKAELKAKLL

B1: 0322-0000-1139 (Fab, V domains shown)
VH: QVQLQQPGAELVRPGASVKLSCKASGYTFTSYWINWVKQRPEQGLEWIGRIDPYDSETHYNQKFKDKAILTVDKSSSTAYMQLSSLTSEDSAVYYCARWGGSGYAMDYWGQGTSVTVSS
VL: QIVLSQSPAILSASPGEKVTMTCRASSSVSYMYWYQQKPGSSPKPWIYATSNLASGVPARFSGSGSGTSYSLTISRVEAEDAATYYCQQWSSIPPTFGGGTKLEIKR
notes: also called Fab 1139
B2: 0322-0000-1069 (murine-human IgG4 chimer) (antibody, V domains shown)
VH: B1 VH
VL: B1 VL
notes: Mouse variable domains on human IgG4(S241P) / human kappa constant regions
B3: M-hProtS-6F230A10 monoclonal antibody (antibody, mouse IgG1, V domains shown)
VH: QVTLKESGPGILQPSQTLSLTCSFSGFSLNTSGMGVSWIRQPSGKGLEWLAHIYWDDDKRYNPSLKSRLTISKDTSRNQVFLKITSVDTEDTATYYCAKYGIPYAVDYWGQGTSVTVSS
VL: QIVLTQSPAIMSASPGEKVTMTCSASSSVSYMYWYQQKPGSSPRLLIYDTSNLASGVPVRFSGSGSGTSYSLTISRMEAEDAATYYCQQWSSYPLTFGAGTKLELKR
B4: human Protein S (plasma derived) (other)
chain: ANSLLEETKQGNLERECIEELCNKEEAREVFENDPETDYFYPKYLVCLRSFQTGLFTAARQSTNAYPDLRSCVNAIPDQCSPLPCNEDGYMSCKDGKASFTCTCKPGWQGEKCEFDINECKDPSNINGGCSQICDNTPGSYHCSCKNGFVMLSNKKDCKDVDECSLKPSICGTAVCKNIPGDFECECPEGYRYNLKSKSCEDIDECSENMCAQLCVNYPGGYTCYCDGKKGFKLAQDQKSCEVVSVCLPLNLDTKYELLYLAEQFAGVVLYLKFRLPEISRFSAEFDFRTYDSEGVILYAESIDHSAWLLIALRGGKIEVQLKNEHTSKITTGGDVINNGLWNMVSVEELEHSISIKIAKEAVMDINKPGPLFKPENGLLETKVYFAGFPRKVESELIKPINPRLDGCIRSWNLMKQGASGIKEIIQEKQNKHCLVTVEKGSYYPGSGIAQFHIDYNNVSSAEGWHVNVTLNIRPSTGTGVMLALVSGNNTVPFAVSLVDSTSEKSQDILLSVENTVIYRIQALSLCSDQQSHLEFRVNRNNLELSTPLKIETISHEDLQRQLAVLDKAMKAKVATYLGGLPDVPFSATPVNAFYNGCMEVNINGVQLDLDEAISKHNDIRAHSCPSVWKKTKNS
notes: Bought plasma-derived human Protein S (Haematologic Technologies or Enzyme Research Laboratories); also called Plasma PS; free Protein S

What was measured:
[1] = molecular target: B4; assay: SPR (Biacore T200), Fab on Protein S captured on C4BP
Procedure: (§1) In brief, a polyclonal anti-C4BP antibody targeting the alpha chain (ab83755 from abcam) was immobilized on a CM5 Biacore sensor chip by standard amine coupling chemistry. […] The experiment was conducted in 10 mM Hepes, pH 7.4; 150 mM NaCl; 10 M CaCl₂ supplemented with 0.005% Tween20 and the chip was regenerated with glycine-HCl pH 1.7.

[2] = molecular target: B4; assay: SPR; protein S binding to the full length antibody
[3] = molecular target: T1, Gla-domain deleted recombinant human …; assay: ELISA, recombinant antibody
[4] = molecular target: T2, EGF1-4 domains of human Protein S with …; assay: ELISA, recombinant antibody
[5] = molecular target: B4; assay: ELISA, recombinant antibody
[6] = molecular target: T3, EGF domain 1 and 2 of recombinant human …; assay: ELISA, recombinant antibody
C4b-Binding Protein = molecular target: T4, C4b-Binding Protein; assay: SPR (Biacore T200), C4BP captured by immobilized polyclonal anti-C4BP alpha chain antibody
Procedure: as §1

Binder: B1
- Kd [1]: 10 nM

Binder: B2
- Kd [2]: 20 nM

Binder: B3
- binding result [3]: binds
- binding result [4]: binds
- binding result [5]: binds
- binding result [6]: no binding

Binder: B4
- Kd (C4b-Binding Protein): 2 nM
